Measurements published in article PMC10461807 (Frontiers in Immunology, 2023).
Residue numbers refer to the chain shown, from its start. One block for each binder: values may come before it.

Key:
recombinant huCD30 (R&D) = target: T1, recombinant huCD30 (R&D) (Homo sapiens, UniProt P28908); assay: SPR; BIAcore 3000, 25°C; recombinant huCD30 amine-coupled on a CM5 chip; mAbs as analyte in serial 1:2 dilutions from 20 nM; 10 mM Hepes pH 7.4, 150 mM NaCl, 0.005% P20, 0.1% BSA; 1:1 Langmuir fit; conditions: both partners purified
T1 construct: recombinant human CD30 from R&D; also called rhCD30; huCD30 protein; source: bought: R&D
T1 sequence (P28908 19-385): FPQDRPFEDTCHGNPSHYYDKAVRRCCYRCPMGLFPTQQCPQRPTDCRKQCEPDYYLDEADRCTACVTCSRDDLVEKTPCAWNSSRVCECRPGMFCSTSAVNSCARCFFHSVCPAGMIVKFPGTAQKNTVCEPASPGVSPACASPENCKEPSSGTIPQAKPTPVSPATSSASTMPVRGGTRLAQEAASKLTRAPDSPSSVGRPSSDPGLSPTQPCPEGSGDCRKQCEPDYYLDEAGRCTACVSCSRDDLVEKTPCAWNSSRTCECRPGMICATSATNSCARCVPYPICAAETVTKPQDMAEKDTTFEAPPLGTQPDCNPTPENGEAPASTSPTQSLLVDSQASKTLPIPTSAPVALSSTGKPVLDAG

Recombinant huCD30 = target: T2, Recombinant huCD30 (Homo sapiens, UniProt P28908); assay: SPR; mAbs (5 ng/ul) immobilized on a Protein G sensor chip at about 200 RU; rhCD30 as analyte (0-2500 nM for the 8D10 and 10C2 flow cells), 2 min at 40 ul/min, 3 min dissociation; 25°C; 10 mM Hepes pH 7.4, 150 mM NaCl, 0.005% P20; BIAcore 3000; 1:1 Langmuir fit; conditions: both partners purified
T2 construct: human CD30 (TNFRSF8), recombinant protein from R&D; also called rhCD30; huCD30 protein; source: bought: R&D
T2 sequence (P28908 19-385): as above

Ka (recombinant huCD30 (R&D)): 1.69e+10 M⁻¹
Kd (recombinant huCD30 (R&D)): 0.0592 nM
koff (recombinant huCD30 (R&D)): 6e-06 s⁻¹
kon (recombinant huCD30 (R&D)): 101000 M⁻¹ s⁻¹
B1: anti-CD30 mAb 8D10 (antibody, V domains shown)
VH: QVQLQESGTELVKPGASVKLSCKASGYTFTSYWMHWMKQRPGQGLEWIGNINPSNGGTNYNEKFKNKATLTVDKSSSTAYMQLSSLTSEDSAVYYCARRDYYYGSSYGFDVWGTGTTVTVSS
VL: DIVMTQSPASQSASLGESVTITCLASQTIGTWLAWYQQKPGKSPQFLIYAATSLADGVPSRFSGSGSGTKFSFKISSLQAEDFVSYYCQQLYSTPFTFGGGTKLEIK
notes: also called clone 8D10; source: mouse hybridoma (custom generated by Genscript), serum-free supernatant, purified (rProtein A GraviTrap)

Ka (Recombinant huCD30): 878000 M⁻¹
Kd (Recombinant huCD30): 1140 nM
koff (Recombinant huCD30): 0.00523 s⁻¹
kon (Recombinant huCD30): 4530 M⁻¹ s⁻¹
B2: anti-CD30 mAb 8D10 (antibody, V domains shown)
VH: B1 VH
VL: B1 VL
notes: IgG2a constant part; kappa light chain; source: mouse hybridoma supernatant (serum-free medium), purified on rProtein A GraviTrap column

Ka (recombinant huCD30 (R&D)): 1.65e+09 M⁻¹
Kd (recombinant huCD30 (R&D)): 0.607 nM
koff (recombinant huCD30 (R&D)): 0.000186 s⁻¹
kon (recombinant huCD30 (R&D)): 307000 M⁻¹ s⁻¹
B3: anti-CD30 mAb 10C2 (antibody, V domains shown)
VH: QVQLEQSGPVLVKPGASVKMSCKASGYTFTDYYMNWVKQSHGKSLEWIGVINPYNGGTSYNQKFKGKATLTVDKSSSTACMELNCLTSEDSAVYYCTLGAYWGQGTSVTVSS
VL: not shown
notes: also called clone 10C2; source: mouse hybridoma (custom generated by Genscript), serum-free supernatant, purified (rProtein A GraviTrap)

Ka (Recombinant huCD30): 579000 M⁻¹
Kd (Recombinant huCD30): 1760 nM
koff (Recombinant huCD30): 0.0101 s⁻¹
kon (Recombinant huCD30): 5880 M⁻¹ s⁻¹
B4: anti-CD30 mAb 10C2 (antibody, V domains shown)
VH: B3 VH
VL: not shown
notes: as for B2

Ka (recombinant huCD30 (R&D)): 5.02e+09 M⁻¹
Kd (recombinant huCD30 (R&D)): 0.199 nM
koff (recombinant huCD30 (R&D)): 1.22e-05 s⁻¹
kon (recombinant huCD30 (R&D)): 61300 M⁻¹ s⁻¹
B5: anti-CD30 mAb 12B1 (antibody, V domains shown)
VH: EVKLEESGTELVKPGASVKLSCKASGYTFTSYWMHWVKQRPGQGLEWIGNINPTNGGTNYNEKFKSKATLTVDKSSRTAYMQLSSLTSGDSAVYYCARRDFITTSGFAYWGQGTLVTVSA
VL: DIVMTQTTASLSTSVGETVTITCRASGNLHSYLTWYQQKQGKSPQLLVYNAKTLADGVPSRFSGSGSGTQYSLKIDSLQPEDFGSYYCQHFWTTPFTFGSGTKLEIK
notes: also called clone 12B1; source: mouse hybridoma (custom generated by Genscript), serum-free supernatant, purified (rProtein A GraviTrap)

Ka (recombinant huCD30 (R&D)): 1.02e+09 M⁻¹
Kd (recombinant huCD30 (R&D)): 0.978 nM
koff (recombinant huCD30 (R&D)): 0.000493 s⁻¹
kon (recombinant huCD30 (R&D)): 504000 M⁻¹ s⁻¹
B6: anti-CD30 mAb 15B8 (antibody, V domains shown)
VH: QVQLEQSGTELVKPGASVKLSCKASGYTFTSYWMHWVKQRPGQGLEWIGNINPSNGGTNYNEKFKSKATLTVDKSSSTAYMQLSSLTSEDSAIYYCARRNNYYASSPFAYWGQGTLVSVSA
VL: B5 VL with T8P, T13A, L29I, S31N, T34A, D76N, T93S
notes: also called clone 15B8; source: mouse hybridoma (custom generated by Genscript), serum-free supernatant, purified (rProtein A GraviTrap)

Ka (recombinant huCD30 (R&D)): 6.7e+09 M⁻¹
Kd (recombinant huCD30 (R&D)): 0.149 nM
koff (recombinant huCD30 (R&D)): 0.000106 s⁻¹
kon (recombinant huCD30 (R&D)): 708000 M⁻¹ s⁻¹
B7: anti-CD30 mAb 13H1 (antibody, V domains shown)
VH: QVQLQQSGTELVKPGASVKLSCKASGHTFTSYWMHWVKQRPGQGLEWIGNINPSNGGTNYNEKFKSKATLTVDKSSSTAYMQLSSLTSEDSAVYYCARRGYYGSSSYWSFDVWGTGTTVTVSS
VL: DIVMTQTPKSMSMSVGERVTLSCKASENVGTYVSWYQQKPEQSPKVLIYGASNRFTGVPDRFTGSGSATDFTLTISSVQTEDLADYHCGQSYSYPLTFGAGTKLELK
notes: also called clone 13H1; source: mouse hybridoma (custom generated by Genscript), serum-free supernatant, purified (rProtein A GraviTrap)
